This note sets out measurements from patent US20150329626A1 (Eli Lilly, published 2015).

Positions count from the first letter of the chain named.

The labels stand for the following.
B1: Compound A (bispecific antibody, human IgG1, kappa)
heavy: not shown
light: DIQMTQSPSSVSASIGDRVTITCRASQGIDNWLGWYQQKPGKAPKLLIYDASNLDTGVPSRFSGSGSGTYFTLTISSLQAEDFAVYFCQQAKAFPPTFGGGTKVDIKRTVAAPSVFIFPPSDEQLKSGTASVVCLLNNFYPREAKVQWKVDNALQSGNSQESVTEQDSKDSTYSLSSTLTLSKADYEKHKVYACEVTHQGLSSPVTKSFNRGEC
B2: Compound B (bispecific antibody, human IgG4 S228P, kappa, F234A L235A)
heavy: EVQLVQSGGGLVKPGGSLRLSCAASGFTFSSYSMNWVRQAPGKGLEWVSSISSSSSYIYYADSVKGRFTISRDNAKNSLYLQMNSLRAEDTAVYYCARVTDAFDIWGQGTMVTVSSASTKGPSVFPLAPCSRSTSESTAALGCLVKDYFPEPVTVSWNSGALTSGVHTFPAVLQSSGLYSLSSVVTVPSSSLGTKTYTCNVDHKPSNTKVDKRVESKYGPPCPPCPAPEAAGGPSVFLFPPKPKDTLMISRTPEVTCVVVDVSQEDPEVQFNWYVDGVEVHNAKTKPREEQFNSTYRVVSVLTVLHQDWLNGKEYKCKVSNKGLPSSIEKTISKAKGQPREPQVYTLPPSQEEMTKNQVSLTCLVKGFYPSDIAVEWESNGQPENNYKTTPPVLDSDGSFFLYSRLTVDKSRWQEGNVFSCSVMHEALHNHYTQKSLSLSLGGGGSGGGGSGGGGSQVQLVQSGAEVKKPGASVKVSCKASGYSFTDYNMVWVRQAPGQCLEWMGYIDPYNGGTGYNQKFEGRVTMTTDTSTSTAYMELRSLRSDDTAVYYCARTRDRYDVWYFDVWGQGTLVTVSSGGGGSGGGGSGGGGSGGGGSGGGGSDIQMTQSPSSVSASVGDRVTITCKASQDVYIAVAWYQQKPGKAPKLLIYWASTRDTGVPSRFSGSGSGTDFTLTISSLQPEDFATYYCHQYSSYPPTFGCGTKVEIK
light: B1 light
B3: Compound E (bispecific antibody, human IgG4 S228P, kappa, F234A L235A)
heavy: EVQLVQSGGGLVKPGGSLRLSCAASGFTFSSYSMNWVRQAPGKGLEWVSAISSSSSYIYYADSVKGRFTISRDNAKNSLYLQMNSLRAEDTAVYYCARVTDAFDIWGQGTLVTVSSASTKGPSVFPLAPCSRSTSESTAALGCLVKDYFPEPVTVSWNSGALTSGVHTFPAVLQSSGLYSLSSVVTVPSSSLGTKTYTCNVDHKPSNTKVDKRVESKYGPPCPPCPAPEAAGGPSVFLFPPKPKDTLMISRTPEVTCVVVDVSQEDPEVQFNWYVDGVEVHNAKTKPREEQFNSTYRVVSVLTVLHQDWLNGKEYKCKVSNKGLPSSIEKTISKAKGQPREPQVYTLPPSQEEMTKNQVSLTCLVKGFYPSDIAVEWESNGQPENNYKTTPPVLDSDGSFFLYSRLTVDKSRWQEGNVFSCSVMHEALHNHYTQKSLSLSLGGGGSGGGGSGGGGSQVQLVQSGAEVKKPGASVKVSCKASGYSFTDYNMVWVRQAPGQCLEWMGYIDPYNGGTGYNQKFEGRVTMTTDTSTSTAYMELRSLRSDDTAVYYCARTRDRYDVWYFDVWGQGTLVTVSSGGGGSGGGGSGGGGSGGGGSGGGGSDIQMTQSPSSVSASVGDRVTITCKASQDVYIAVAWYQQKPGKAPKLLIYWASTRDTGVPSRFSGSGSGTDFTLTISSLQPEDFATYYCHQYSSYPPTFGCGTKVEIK
light: DIQMTQSPSSVSASVGDRVTITCRASQGIDNWLTWYQQKPGKAPKLLIVEASSLQSGVPSRFSGSGSGTDFTLTISSLQPEDFATYYCQQAKAFPPTFGGGTKVDIKRTVAAPSVFIFPPSDEQLKSGTASVVCLLNNFYPREAKVQWKVDNALQSGNSQESVTEQDSKDSTYSLSSTLTLSKADYEKHKVYACEVTHQGLSSPVTKSFNRGEC
B4: Compound D (bispecific antibody, human IgG4 S228P, kappa, F234A L235A)
heavy: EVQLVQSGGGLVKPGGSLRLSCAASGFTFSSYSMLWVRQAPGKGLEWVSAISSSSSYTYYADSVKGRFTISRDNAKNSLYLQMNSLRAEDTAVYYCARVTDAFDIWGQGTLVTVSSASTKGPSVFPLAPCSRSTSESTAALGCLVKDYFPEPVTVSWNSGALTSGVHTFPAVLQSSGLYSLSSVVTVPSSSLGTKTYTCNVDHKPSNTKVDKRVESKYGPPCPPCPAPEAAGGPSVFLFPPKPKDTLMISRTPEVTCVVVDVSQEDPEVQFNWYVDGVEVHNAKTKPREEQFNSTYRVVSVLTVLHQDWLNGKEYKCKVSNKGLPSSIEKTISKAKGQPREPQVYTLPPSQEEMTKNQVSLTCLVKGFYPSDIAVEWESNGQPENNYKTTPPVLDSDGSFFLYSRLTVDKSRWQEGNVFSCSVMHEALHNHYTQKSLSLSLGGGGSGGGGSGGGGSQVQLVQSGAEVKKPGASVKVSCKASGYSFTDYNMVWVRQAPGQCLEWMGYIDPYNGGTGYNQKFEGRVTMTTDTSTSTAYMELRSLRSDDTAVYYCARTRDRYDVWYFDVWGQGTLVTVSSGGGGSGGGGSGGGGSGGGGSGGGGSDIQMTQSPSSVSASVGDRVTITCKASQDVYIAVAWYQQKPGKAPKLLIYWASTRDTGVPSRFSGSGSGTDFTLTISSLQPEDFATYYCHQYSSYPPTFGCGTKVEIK
light: B3 light with A93R
B5: Compound C (bispecific antibody, human IgG4 S228P, kappa, F234A L235A)
heavy: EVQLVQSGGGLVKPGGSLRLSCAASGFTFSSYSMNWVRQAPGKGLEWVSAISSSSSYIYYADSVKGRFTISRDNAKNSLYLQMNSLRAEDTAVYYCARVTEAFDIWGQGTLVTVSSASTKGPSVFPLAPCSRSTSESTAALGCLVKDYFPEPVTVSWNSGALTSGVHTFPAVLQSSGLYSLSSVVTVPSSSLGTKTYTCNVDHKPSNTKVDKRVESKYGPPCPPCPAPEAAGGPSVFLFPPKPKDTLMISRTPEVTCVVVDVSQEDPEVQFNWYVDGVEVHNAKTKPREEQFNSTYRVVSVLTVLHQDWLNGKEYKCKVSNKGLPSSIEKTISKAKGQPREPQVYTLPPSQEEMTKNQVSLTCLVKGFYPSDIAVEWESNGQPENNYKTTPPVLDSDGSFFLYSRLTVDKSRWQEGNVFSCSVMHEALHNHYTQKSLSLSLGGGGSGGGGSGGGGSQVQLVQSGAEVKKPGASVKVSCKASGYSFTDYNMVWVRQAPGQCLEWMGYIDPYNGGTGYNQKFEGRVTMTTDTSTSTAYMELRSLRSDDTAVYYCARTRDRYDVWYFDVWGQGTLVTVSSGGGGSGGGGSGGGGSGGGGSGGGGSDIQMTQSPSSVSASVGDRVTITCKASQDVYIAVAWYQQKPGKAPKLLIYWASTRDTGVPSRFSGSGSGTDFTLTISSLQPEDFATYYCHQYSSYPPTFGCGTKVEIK
light: B3 light with Q27R, V49Y

One experiment deals with T1, human VEGFR2 extracellular domain (human, UniProt P35968 20-764).
T1 construct: also called hVEGFR2-ECD; human VEGFR2-ECD
T1 sequence (P35968 20-764): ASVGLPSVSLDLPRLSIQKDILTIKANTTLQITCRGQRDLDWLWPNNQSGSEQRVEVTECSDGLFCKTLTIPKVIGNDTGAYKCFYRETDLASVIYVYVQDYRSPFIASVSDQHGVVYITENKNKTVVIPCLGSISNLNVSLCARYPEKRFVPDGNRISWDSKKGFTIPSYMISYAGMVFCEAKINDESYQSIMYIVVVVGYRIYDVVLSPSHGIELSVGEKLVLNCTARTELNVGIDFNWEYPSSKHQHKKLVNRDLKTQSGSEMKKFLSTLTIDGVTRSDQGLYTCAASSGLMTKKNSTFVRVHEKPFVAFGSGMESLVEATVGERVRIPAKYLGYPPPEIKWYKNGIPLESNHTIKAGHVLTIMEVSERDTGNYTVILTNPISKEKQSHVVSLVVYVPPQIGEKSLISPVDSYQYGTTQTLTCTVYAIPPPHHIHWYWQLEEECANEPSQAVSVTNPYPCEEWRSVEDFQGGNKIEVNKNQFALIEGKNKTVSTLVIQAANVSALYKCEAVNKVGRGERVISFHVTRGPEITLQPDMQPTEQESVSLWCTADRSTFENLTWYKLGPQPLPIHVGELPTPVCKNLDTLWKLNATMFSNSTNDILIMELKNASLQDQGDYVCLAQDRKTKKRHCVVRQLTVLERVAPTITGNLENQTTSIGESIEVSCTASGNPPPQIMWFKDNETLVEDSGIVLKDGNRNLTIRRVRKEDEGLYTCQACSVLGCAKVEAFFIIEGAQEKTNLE
In words: Biacore SPR, 25 C, compound captured on Protein A, VEGFR2-ECD as analyte. A general note: Surface plasmon resonance follows binding to a sensor surface in real time, without labels.
As for B1, the Kd – broadly, the free concentration of one partner at which half of the binding sites on the other are occupied at equilibrium, for simple one-to-one binding – came out at 0.711 nM; the koff – broadly, the first-order rate constant of dissociation – stood at 4.8e-05 s⁻¹; the kon – broadly, the second-order rate constant of association – came out at 68000 M⁻¹ s⁻¹.

B2: the Kd is 0.513 nM, the koff was determined as 4.1e-05 s⁻¹ and the kon is 81000 M⁻¹ s⁻¹.

Take B3: the affinity, expressed as Kd, was 1.11 nM; the koff came to 3.5e-05 s⁻¹; the kon is 32000 M⁻¹ s⁻¹.

In turn, B4 showed a Kd of 0.86 nM, a koff of 2.9e-05 s⁻¹ and a kon of 34000 M⁻¹ s⁻¹.

As to B5, the Kd came out at 0.528 nM, the koff is 2e-05 s⁻¹ and the kon is 38000 M⁻¹ s⁻¹.

The next experiment concerns the target T2, human Ang2 (human, UniProt O15123 19-496).
T2 construct: also called hAng2; human angiopoietin-2
T2 sequence: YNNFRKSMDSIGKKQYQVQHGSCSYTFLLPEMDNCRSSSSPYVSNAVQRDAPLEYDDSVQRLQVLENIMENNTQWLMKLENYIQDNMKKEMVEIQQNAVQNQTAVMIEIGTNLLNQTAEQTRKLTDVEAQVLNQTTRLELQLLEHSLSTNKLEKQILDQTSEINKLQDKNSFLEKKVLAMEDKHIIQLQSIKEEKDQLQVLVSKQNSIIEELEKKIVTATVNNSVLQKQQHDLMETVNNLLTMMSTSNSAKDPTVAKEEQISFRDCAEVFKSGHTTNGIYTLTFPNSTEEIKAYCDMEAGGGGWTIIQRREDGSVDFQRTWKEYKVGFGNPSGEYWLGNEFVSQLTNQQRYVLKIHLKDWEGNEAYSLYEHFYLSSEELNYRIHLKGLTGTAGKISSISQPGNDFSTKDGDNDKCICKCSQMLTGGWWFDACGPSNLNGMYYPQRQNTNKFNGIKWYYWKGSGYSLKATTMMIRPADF
In words: Biacore SPR, 25 C, compound captured on Protein A, Ang2 as analyte.
Consider B1, for which the Kd is < 0.1 nM, the koff was < 1e-05 s⁻¹ and the kon came out at 183000 M⁻¹ s⁻¹.

Regarding B2, the Kd is < 0.1 nM, the koff was < 1e-05 s⁻¹ and the kon was 285000 M⁻¹ s⁻¹.

In turn, B3 yielded a Kd of 0.407 nM, a koff of 9.7e-05 s⁻¹ and a kon of 239000 M⁻¹ s⁻¹.

In the case of B4, the Kd was 0.489 nM, the koff was 8.6e-05 s⁻¹ and the kon was determined as 175000 M⁻¹ s⁻¹.

As to B5, the affinity, expressed as Kd, was 0.462 nM; the koff came out at 0.000105 s⁻¹; the kon worked out at 226000 M⁻¹ s⁻¹.
